# Experimental data as given in patent EP4644423A1 (Biyopharma Co., Ltd, dated 2025).
# Residue numbers refer to the chain shown, from its start.
# T1: pituitary adenylate cyclase-activating polypeptide (PACAP) (UniProt P18509 132-169, not fully specified; biotin label in the ELISA of Example 3 (Biotin-PACAP; position not stated); unlabelled in the cAMP assay)
# T1 construct: also called PACAP38; Biotin-PACAP
# T1 peptide (looked up): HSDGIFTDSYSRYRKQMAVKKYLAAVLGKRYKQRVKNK
# B1: A10-268-18 (VHH)
# VHH: QVQLVESGGGQVQAGGSLRLSCAASGRISSSYDMGWLRQAPGKEREFVARITWSGGSTYYADSVKGRFTISRDSTKKTVYLQMNSLKPEDTAVYYCAANRAFTGQYDYWGQGTQVTVSS
# B2: A10-268-42 (VHH)
# VHH: QVQLVESGGGLVQAGDSLRLSCAASGRTFSGYVMGWFRQAPGKEREFVAALRWSSSNTNYAASVKGRFTISRDYAKDTVYLQMNSLKPDDTAVYYCAAKRDRPYGSTWTPVAADYDTWGQGTQVTVSS
# notes: Llama VHH with C-terminal 6xHis, expressed in 293 cells; also called B828603; 42wt
# B3: A10-268-273 (VHH)
# VHH: B2 VHH with Q1E, A14P, R19T, T28A, F29K, S30N, G31R, S128A
# B4: A10-268-76 (VHH)
# VHH: QVQLVESGGGLVPAGGSLNLSCAASGRTFSTYAMGWFRQAPGKEREFVATINWDNGRTYYADSVKGRFTISRDNAKNMVYLQMNSLKPEDTAVYYCAADKTAIFRTSVVPDDYDYWGQGTQVTVSS
# notes: Llama VHH with C-terminal 6xHis, expressed in 293 cells; also called B828604
# B5: A10-268-103 (VHH)
# VHH: QVQLVESGGGLVQAGGSLRLSCVASGRTFSSYAMGWFRQAPGKEREFVSGITESGATTRYADSMRGRFIISRDNAQNTVYLEMNSLKPEDSAVYYCAASRFGITVPTAKGAYNYWGQGTQVTVSS
# notes: Llama VHH with C-terminal 6xHis, expressed in 293 cells; also called B828605
# B6: A10-268-5 (VHH)
# VHH: QVQLVESGGGLVQAGGSLRLSCAVSGRTVTTITMGWFRQAPGKEREFVASISWDGLSTGYQDSVKGRFTISRDNAKNTVYLQMNSLKPEDTAVYYCAAGDSLWSWSKVPANYAYWGQGTQVTVSS
# notes: Llama VHH with C-terminal 6xHis, expressed in 293 cells; also called B828601
# B7: A10-269-238 (VHH)
# VHH: QVQLVESGGGLVQPGGSLRLSCAASGFTFGNYDMSWVRQAPGKGPEWVSGIAPAGTITRYADSVKGRFTISRDNAKNTLYLQMNSLKPEDTAVYRCAKGASWGQGTQVTVSS
# notes: Llama VHH with C-terminal 6xHis, expressed in 293 cells; also called N220505106
# B8: A10-269-385 (VHH)
# VHH: EVQLVESGGGLVQAGGSLRVSCQASEISFSFHAMGWYRQAPGKQRELVARITSIGRTTYADFVKGRFTISRGNAKNTVYLQMNSLKPEDTAVYYCNAEPGRVNYEYWGQGTQVTVSS
# notes: Llama VHH with C-terminal 6xHis, expressed in 293 cells; also called N220505107
# B9: A10-269-172 (VHH)
# VHH: EVQVVESGGGLVQAGGSLRLSCVSSESSFSINTMRWYRQAPGKERELVASINSASSTYYGDAVKGRFTISRVNAKNTVYLQMNSLKPEDTAVYFCNTHSVLASRDYWGQGTQVTVSS
# notes: Llama VHH with C-terminal 6xHis, expressed in 293 cells; also called N220505104
# B10: A10-269-165 (VHH)
# VHH: QVQLVESGGGLVQAGGSLRLSCAASRTWFSIGAMGWYRQAPGKQRELVATITSGSSTTYADAVKGRFTVSRDNAENTVYLQMNSLKPEDTAVYYCYTKSRRKPWDLENDYWGQGTQVTVSS
# notes: Llama VHH with C-terminal 6xHis, expressed in 293 cells; also called N220505103
# B11: A10-269-56 (VHH)
# VHH: EVQLVESGGGLVQAGGSLRLSCAASGSTFSGRYMGWFRQGQGKEREFVAASMWSGTAISYADSVKGRFTISRDNAKATMYLQMSSLKDEDTAVYYCAAGGLWNLKLSDAGYYEYWGQGTQVTVSS
# notes: Llama VHH with C-terminal 6xHis, expressed in 293 cells; also called N220505101
# B12: PAC1s ECD-Fc (Fc fusion)
# chain: MHSDCIFKKEQAMCLEKIQRANELMGFNDSSPGCPGMWDNITCWKPAHVGEMVLVSCPELFRIFNPDQDMGVVSRNCTEDGWSEPFPHYFDACGFDEYESETGDQDYYYLSVKA
# notes: C-terminus of PAC1s ECD fused to the N-terminus of Fc; also called PACs1 ECD-Fc; PACls ECD-Fc; not shown: Fc fused to the C-terminus of the ECD
# Molecular target: CGRP receptor on SK-N-MC cells (UniProt O60894 27-148; Q16602 23-461, limits assumed)
# Test: cell-based or functional assay
# CGRP receptor on SK-N-MC cells, sequence (O60894 27-148 limits assumed, chain 1 of 2): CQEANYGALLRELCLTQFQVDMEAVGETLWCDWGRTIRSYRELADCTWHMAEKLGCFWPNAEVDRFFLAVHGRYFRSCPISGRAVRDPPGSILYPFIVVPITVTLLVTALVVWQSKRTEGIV
# CGRP receptor on SK-N-MC cells, sequence (Q16602 23-461 limits assumed, chain 2 of 2): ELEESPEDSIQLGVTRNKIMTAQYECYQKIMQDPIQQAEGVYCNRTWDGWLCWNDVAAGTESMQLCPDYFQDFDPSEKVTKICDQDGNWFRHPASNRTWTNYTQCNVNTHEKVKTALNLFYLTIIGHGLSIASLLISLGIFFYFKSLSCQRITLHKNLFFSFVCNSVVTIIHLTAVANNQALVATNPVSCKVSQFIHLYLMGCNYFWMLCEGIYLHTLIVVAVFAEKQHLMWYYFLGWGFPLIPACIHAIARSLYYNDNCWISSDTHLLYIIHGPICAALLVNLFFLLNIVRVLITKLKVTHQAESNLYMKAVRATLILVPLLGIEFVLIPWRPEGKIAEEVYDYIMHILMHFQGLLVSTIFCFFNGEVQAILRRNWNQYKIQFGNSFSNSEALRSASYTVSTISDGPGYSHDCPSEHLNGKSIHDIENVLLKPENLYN
row,"IC50 (nM), inhibition of CGRP-induced (5 nM) cAMP production in SK-N-MC cells [nM]",Binder
1,492,B1
2,39.7,B2
3,23.6,B3
4,> 10000,B4
5,279,B5
6,> 10000,B6

# Molecular target: T2, RC-Fc (human)
# T2 construct: Knob-in-hole heterodimer of the R chain and the C chain, human IgG1 Fc; expressed in 293 cells, purified on Protein A; also called RC-Fc fusion protein; reconstructed CGRP receptor extracellular region
# Test: ELISA, RC-Fc coated, VHH-His titrated, anti-His-HRP; Exp1
# T2 sequence (chain, as listed by the source limits assumed, chain 1 of 2): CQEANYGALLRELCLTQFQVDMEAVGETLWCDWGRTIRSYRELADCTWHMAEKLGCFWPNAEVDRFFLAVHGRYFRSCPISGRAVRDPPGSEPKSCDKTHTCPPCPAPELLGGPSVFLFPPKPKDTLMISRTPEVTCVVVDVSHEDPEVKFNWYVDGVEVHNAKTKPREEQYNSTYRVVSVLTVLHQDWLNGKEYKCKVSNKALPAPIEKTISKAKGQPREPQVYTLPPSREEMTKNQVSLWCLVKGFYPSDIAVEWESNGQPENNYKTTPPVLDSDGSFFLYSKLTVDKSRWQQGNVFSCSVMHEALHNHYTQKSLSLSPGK
# T2 sequence (chain, as listed by the source limits assumed, chain 2 of 2): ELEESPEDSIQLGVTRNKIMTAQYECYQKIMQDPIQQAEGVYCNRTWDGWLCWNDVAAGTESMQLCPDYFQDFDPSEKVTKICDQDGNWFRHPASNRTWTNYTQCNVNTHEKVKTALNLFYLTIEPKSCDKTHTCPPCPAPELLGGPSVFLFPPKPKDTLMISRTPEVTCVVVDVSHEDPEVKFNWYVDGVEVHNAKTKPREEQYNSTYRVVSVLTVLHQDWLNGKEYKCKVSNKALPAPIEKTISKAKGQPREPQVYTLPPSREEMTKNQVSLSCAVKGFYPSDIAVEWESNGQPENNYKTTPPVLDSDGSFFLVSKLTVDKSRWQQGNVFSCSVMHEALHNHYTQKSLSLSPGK
EC50 [nM],binding result,Binder
0.091,,B7
0.052,,B8
0.025,,B2
0.056,,B9
0.097,,B10
0.024,,B4
,no binding,B11
0.372,,B5
0.143,,B6

# Molecular target: T2, RC-Fc
# Test: ELISA, RC-Fc coated, VHH-His titrated, anti-His-HRP; Exp2
row,EC50 [nM],Binder
1,0.073,B7
2,0.073,B8
3,0.15,B2
4,0.051,B9
5,0.057,B10
6,0.144,B4
7,0.114,B5
8,0.184,B6

# Molecular target: T2, RC-Fc
# Test: ELISA, RC-Fc coated, VHH-His titrated, anti-His-HRP; Exp3
row,EC50 [nM],Binder
1,0.081,B7
2,0.061,B8
3,0.021,B2
4,0.042,B9
5,0.48,B10
6,0.028,B4
7,0.265,B5
8,0.08,B6

# Molecular target: T2, RC-Fc
# Test: ELISA, RC-Fc coated, VHH-His titrated, anti-His-HRP; average of Exp1-3
row,EC50 [nM],Binder
1,0.082,B7
2,0.062,B8
3,0.065,B2
4,0.05,B9
5,0.211,B10
6,0.065,B4
7,0.25,B5
8,0.136,B6

# Molecular target: T1, pituitary adenylate cyclase-activating …
# Test: ELISA, Biotin-PACAP on streptavidin plate, Fc fusion titrated, anti-human IgG-HRP
row,fold binding ability against PAC1 ECD-Fc,Binder
1,40 times that of PAC1 ECD-Fc,B12
